Consider 21 sequences from the DeepSol protein solubility set.

The data set in a line: soluble on expression in E. coli; label from the status in PepcDB or PDB records.
Turning to “MGSDKIHHHHHHMSIIFDKNLGILEKTIEEIQNEKKHILRTKYGINIKDNSIYDIINFPSSSIDKQISEVLKELFSKIKENGSYFNALKEDLSTPKSSTYEAIRKALLNVEGVKHINILSGPGTINLYLILQDDCFQDQEKKQIKIETKQNIWQAIYYTAPSGTVFKGDIEIEFLNKHNQKKTYKFSLGKKKYAYLKVVYKTEAKDAIYKEIDTQIRDIYNKILTDKYIEMGTSLRYQDFLAPVSIIRGIKELKIGICIKNDETKKITQLSDSDFTFNKDENTKEDEIIIFNTNKRLLINRE”, the “soluble on expression in E. coli” value is reported as “not soluble”.

Turning to “MKRYVFMLSDGTGITAETLGNSLITQFENIQFEKITIPYIDSTHRAESVVLRINQCFSEQGTKPLVFMTLVDPEIRQAIKKAHACVFDLFSIFIGPLENELEEKSSYTVGRTHGVANVKSYSHRIEAIDFALSHDDGIKTRGYDKADIILIGVSRCGKTPSCLYMALQYGILAANYPFTEEDLVGFRLPEVLRPYKQKLFGLTIDAQRLQQIRSERRPNSKYASAEQCRLEVTEVEAMYQRENIPYINSTKYSIEEISTKVLAIAGLQRKILEHHHHHH”, the “soluble on expression in E. coli” value is reported as “not soluble”.

With “MEEPEEPADSGQSLVPVYIYSPEYVSMCDSLAKIPKRASMVHSLIEAYALHKQMRIVKPKVASMEEMATFHTDAYLQHLQKVSQEGDDDHPDSIEYGLGYDCPATEGIFDYAAAIGGATITAAQCLIDGMCKVAINWSGGWHHAKKDEASGFCYLNDAVLGILRLRRKFERILYVDLDLHHGDGVEDAFSFTSKVMTVSLHKFSPGFFPGTGDVSDVGLGKGRYYSVNVPIQDGIQDEKYYQICESVLKEVYQAFNPKAVVLQLGADTIAGDPMCSFNMTPVGIGKCLKYILQWQLATLILGGGGYNLANTARCWTYLTGVILGKTLSSEIPDHEFFTAYGPDYVLEITPSCRPDRNEPHRIQQILNYIKGNLKHVVIEGRGSHHHHHH”, the “soluble on expression in E. coli” value was “soluble”.

Take “MSLKWNRPAGSLSATLILAHGAGAPMDSPFMERIAELLAAQGIAVARFEFPYMAQRREDGRKRPPNPQAQLLDCWRRVHAQVRETLDGPLALGGKSMGGRMASLLADELGADALVCLGYPFYAAGKPEKPRVAHLAGLRTPTLIVQGERDALGNREAVAGYALAPTIRLHWLAAADHDLKPLKASGLTHEQHLAATAREVAGFLRGLQGH”: the “soluble on expression in E. coli” value was “not soluble”.

For the sequence “MKKDITLFTSARPELKFFRLSECKEHLDTAAMWAKNAWGYMHLDDEQFHYKQLQELCEHVYIAMYDGLPVGMLAVIEKTLSLEENREESSEKIVEEPSTPEITEMKNAYLDYVYIDERARSIGLAGIIIEKAKNLAREMNAEVMSLETLNSTLNGFYKRKGGRVICEGRYNDSYPTEVMRLRF”, the “soluble on expression in E. coli” value is given as “not soluble”.

Consider “MKLKLFFHIVLLCFSLPIWAMKTVDVTASPKMDDQARMNLAQEFANKQQWIDVFNIMYPMALEGNITAQSNLGMLYNLGRGTVRDYEKAYWWFSEAAEKGSVKGLNNLGVMYLRGDYVKQNTEQAIKLFERTAQAKDTDAMMMLSNIYRLQNQPEKIIGMAEESRLEHHHHHH”, for which the “soluble on expression in E. coli” value was “not soluble”.

Regarding “MGSDKIHHHHHHMKEVKDFYDKWEPEDFPNYIKLLMNFADELIFEEISLLLKKFENKKDFLVLDCGCGFGAFYNLTKDFNTIYLDISLNLLKRFKLKERKICANILHLPFKDNTFDLVLCINVLEHVNYLKALNEIRRILKNKGKLIVVVVNKDSLIKEEIFNDFKIFHKPLSIKDFEIDGFKIVYSNSVYFLPSIFKISPPIILSKIIEYWKPVDKKLSKIFKNKGQFLIIEMVKE”, the “soluble on expression in E. coli” value is listed as “not soluble”.

Turning to “MVDEDKKSGTRVFKKTSPNGKITTYLGKRDFIDRGDYVDLIDGMVLIDEEYIKDNRKVTAHLLAAFRYGREDLDVLGLTFRKDLISETFQVYPQTDKSISRPLSRLQERLKRKLGANAFPFWFEVAPKSASSVTLQPAPGDTGKPCGVDYELKTFVAVTDGSSGEKPKKSALSNTVRLAIRKLTYAPFESRPQPMVDVSKYFMMSSGLLHMEVSLDKEMYYHGESISVNVHIQNNSNKTVKKLKIYIIQVADICLFTTASYSCEVARIESNEGFPVGPGGTLSKVFAVCPLLSNNKDKRGLALDGQLKHEDTNLASSTILDSKTSKESLGIVVQYRVKVRAVLGPLNGELFAELPFTLTHSKPPESPERTDRGLPSIEATNGSEPVDIDLIQLHEELEPRYDDDLIFEDFARMRLHGNDSEDQPSPSANLPPSLL”, the “soluble on expression in E. coli” value is “not soluble”.

On to “MEYKPIRKVVSGNYAAAYAALHARVQVVAAYPITPQTSIIEKIAEFIANGEADIQYIPVESEHSAMAACIGASATGARTFTATSAQGLALMHEMLHWAAGARLPIVMVDVNRAMAPPWSVWDDQTDSLSQRDTGWMQFYAENNQEVYDGVLMAYKVAETVNVPAMVVESAFILSHTYDVVEMIPQELVDEFLPPRKPLYSLANFDEPIAVGALATPNDYYEFRYKLAKAHEEAKKVIKEVGKEFGERFGRDYSQMIETGYIDDADFVFMGMGSLMGTVKEAVDLLRKEGYKVGYAKVRWFRPFPKEELVEIAESVKGIAVLDRNFSFGQEGILFTESKGALYNSSAHPLMKNYIVGLGGRDVTVKDIKAIADDMKKVIESGKVDKEVVWYHLKR”, for which the “soluble on expression in E. coli” value was “not soluble”.

For “MGSDKIHHHHHHMGTRLDILMIHSNLPLLNMLWAHITDELERLDKMLNRFDATSEVSKLNSHTQQDSVSVSAELEDILRSCQYYYEKTLHLFDITLNDFSQIQIHGNHHISFSNFSVTLDFGGFAKGYALKKIQEILLRGNIENAFVDFGNSSIMGIGHHPYGDCWKVSLQNPYTQQTLDEFCLTDNTLSTSGNTEQYTGHIINPLTGIYNEQKKVTSILSDNPLDAEILSTVWMIADDQQREQINENFKHIKGTIYTL”, the “soluble on expression in E. coli” value is listed as “not soluble”.

For “MANVQSGKMIVGLDIGTSKVVALVGEVAADGSLEIVGIGTHPSRGLKKGVVVNIESTVQSIQRAIEEAQLMAGCRIHSAFVGVAGSHIRSLNSHGIVAIRDREVSAADLERVLDAAQAVAIPADQ”, the “soluble on expression in E. coli” value is given as “not soluble”.

As for “NVLYENQKQIANQFNKAISQIQESLTTTSTALGKLQDVVNQNAQALNTLVKQLSSNFGAISSVLNDILSRLDKVEAE”, the “soluble on expression in E. coli” value is given as “soluble”.

As for “KAPNLYMTDTTGTYRYLYDVQAKYTILFFWDSQCGHCQQETPKLYDWWLKNRAKGIQVYAANIERKDEEWLKFIRSKKIGGWLNVRDSKNHTDFKITYDIYATPVLYVLDKNKVIIAKRIGYENLDDFLVQYEKSLKTK”, the “soluble on expression in E. coli” value is given as “not soluble”.

Regarding “MNVVIVRYGEIGTKSRQTRSWFEKILMNNIREALVTEEVPYKEIFSRHGRIIVKTNSPKEAANVLVRVFGIVSISPAMEVEASLEKINRTALLMFRKKAKEVGKERPKFRVTARRITKEFPLDSLEIQAKVGEYILNNENCEVDLKNYDIEIGIEIMQGKAYIYTEKIKGWGGLPIGTEGRMIGILHDELSALAIFLMMKRGVEVIPVYIGKDDKNLEKVRSLWNLLKRYSYGSKGFLVVAESFDRVLKLIRDFGVKGVIKGLRPNDLNSEVSEITEDFKMFPVPVYYPLIALPEEYIKSVKERLGL”, the “soluble on expression in E. coli” value is “soluble”.

As for “MGSDKIHHHHHHDLEEYRTTPKMVINSAFSPDTVVMASISRTWFHSESKPDVTIRNAKVELYIDGIFKEEMPWKEYSYWKSSRWLGEDRGGWVTDTLYISNTVPQPGQTVKIVASTPEYGTASAEDKIPSKTEIKGLRIIPRKEATGNGGTLVDGDGNISYIEENDVLIYQITFQDTPGKSNYYSLQIWGDDDHLGVLLDFSVDPVFTQQQGILDEVFGSSMVNWRGRVFSDELFDGKEYTLQVKEQLRSDTKYYTKRHIRLYSLSEPYYQYLLSLQNIKNEGIMGGLTNVGLAEPVRIYSNVEGGTGIAGGCQWFESLVDIKDLIK”, the “soluble on expression in E. coli” value is reported as “not soluble”.

Consider “MSATETKYVPRLYKKYKEEVVPILQKKFNYKSPMQIPRLQKIVVNMGVGEAVQDIRQLERAVEDLRAITGQQPVITRARKSEAGFKLRKGMPIGCKVTLRKERMWDFLDKLISVALPRVKDFKGLSPRSFDGRGNYAFGIAEQIVFPEIDYDKVDRIRGMDIIINTTAETDEEAFWLLSLLGLPIRSM”, for which the “soluble on expression in E. coli” value is recorded as “soluble”.

Take “MLRSIICNMCNLSDESKQFEMTPPSSNLSSLFPTGRAVRNPFGKVYFVVILKGKAMVRIDGKSMLLLERTFLFLPPGHLLLRLSCTQDFLFQYLSFSFDFLSDFPLLLKADISNQVTNAPCLPMSPEDFSLIKMYYHFIYHRYLDAECPSEVIKGMLFSLVLEVCRMYSGRNISVEMSRQDKLVDGFFSLLHKYCTQERMAAFYASRLCISDKYLMRSIKKQTGQTFHYWMADFILREAKLMLRSTDLSVTEIADKLSFPNSSSFARFFRKYTGFSPVQFRNEA”: the “soluble on expression in E. coli” value is given as “not soluble”.

For the sequence “MGSDKIHHHHHHMAKLMNNKLKKEIIDFAHSIGIDSIGFTTADPFDELKQKLEEYHAKGYASGFEESNISLRTEPKLSLPSARSIIAIAVGYPNKLKGAPKSVKGDRRGMFARASWGQDYHSIMRKRLDKLADFIKEKVPDVEIQSMVDTGVLSDRAVAERAGLGFTGRNGFVISPELGTWSYLGEMLVSIPFEPDDPLLDSCGDCTICVDRCPTGALVGNGQLNSQKCISFLTQTKGYLQDEYRYKIGNRLYGCDTCQQVCPKNRGINTQHDDIVLEPEILKPRLVPLLQMSNKKFKSTYGHLAGAWRGKKPIQRNAIIALAHFKEESAIPELKEVALNDPRPMIRGTAYWAIGQILEDDAISFIDEHYENEIEEVQLEMKKGLQMRREQK”, the “soluble on expression in E. coli” value was “not soluble”.

With “MAVSTVTGAAGIGLATLAADGSVLDTWFPAPELTESGTSATSRLAVSDVPVELAALIGRDDDRRTETIAVRTVIGSLDDVAADPYDAYLRLHLLSHRLVAPHGLNAGGLFGVLTNVVWTNHGPCAIDGFEAVRARLRRRGPVTVYGVDKFPRMVDYVVPTGVRIADADRVRLGAHLAPGTTVMHEGFVNYNAGTLGASMVEGRISAGVVVGDGSDVGGGASIMGTLSGGGTHVISIGKRCLLGANSGLGISLGDDCVVEAGLYVTAGTRVTMPDSNSVKARELSGSSNLLFRRNSVSGAVEVLARDGQGIALNEDLHANGVPRGLEHHHHHH”, the “soluble on expression in E. coli” value is reported as “soluble”.

“MTDFSRTFSGTPSAVLPTANRFFRPPLPSAHVARPRLCRRLRDGLDGRLLLIAAPAGFGKSSLAIEFCESLDPRWQSLWLGLSSRESDPGRFLERLLDGLRQYHPTLGEEALGLLKMRQRHQPFAFETWLDDLLDELAPCLDPQRPLLLVLDDYHLAQGAVLDRCLQFLLNHLPEGLVLLVTSRQRPDWHLARLRLSRQLLELSEQDLRLTAEESGALMAASGLELDEDALDALLERSEGWVAGLRLWLLARGDPEEQVSPGVHGADELIRDYLLEEVIERQPPEVQAFLAQTARFERFCAELCDTVREAGDSAAILDHLQQHQVFLVPLDENGQWFRYHHLFSDLLLARPLPDFGPSAGSLHLRACGWFSRHGLLDQAVEQALRAGQPDVAASLVQNLSEEQLLAEQNIATLLRWKMDLPDSLLASTPRLILLYGWALALACQLDAAEELAGQLARFLPAPDESAQRDLLAQWQALSGVIARGRGDIDKAEAHCREALQDLAGERYGTRLQCLSTLSNLAVTRGDFWQA”: the “soluble on expression in E. coli” value is on record as “not soluble”.

As to “MDSGLKALEAVLAIARKGSFRAAALDLGVSTTALSHTVARLEAGLGVRLFHRTTRSVALTEAGREFVARIAPALTEIRAALETVRSQRATPSGMLRINASVQAGRAVAPLVLAFLRRYPEMRVDLVTEGRLLDIVAEGFDMGIRPADLVPRDMIALPLGLPVRHAVVASPDWLVRHPEPRSPADLDPDACLRVRLPNGALLRWPFQKDGVPLPFEASGRLTVDEAAIARAAVLDGAGIGYFIEADVAEDIAAGRMIRLLEDWTPNRPGFSLYYSGRRNPSAGFTAFLAMAREREAA”, the “soluble on expression in E. coli” value was “not soluble”.
